Reference: IntAct's records for PubMed 19037259

Experiments:
vac14_yeast VAC14 = vac14_yeast VAC14 (UniProt Q06708)
fig4_yeast FIG4 = fig4_yeast FIG4 (UniProt P42837)
Sequence of UniProt P42837 (P42837 whole entry): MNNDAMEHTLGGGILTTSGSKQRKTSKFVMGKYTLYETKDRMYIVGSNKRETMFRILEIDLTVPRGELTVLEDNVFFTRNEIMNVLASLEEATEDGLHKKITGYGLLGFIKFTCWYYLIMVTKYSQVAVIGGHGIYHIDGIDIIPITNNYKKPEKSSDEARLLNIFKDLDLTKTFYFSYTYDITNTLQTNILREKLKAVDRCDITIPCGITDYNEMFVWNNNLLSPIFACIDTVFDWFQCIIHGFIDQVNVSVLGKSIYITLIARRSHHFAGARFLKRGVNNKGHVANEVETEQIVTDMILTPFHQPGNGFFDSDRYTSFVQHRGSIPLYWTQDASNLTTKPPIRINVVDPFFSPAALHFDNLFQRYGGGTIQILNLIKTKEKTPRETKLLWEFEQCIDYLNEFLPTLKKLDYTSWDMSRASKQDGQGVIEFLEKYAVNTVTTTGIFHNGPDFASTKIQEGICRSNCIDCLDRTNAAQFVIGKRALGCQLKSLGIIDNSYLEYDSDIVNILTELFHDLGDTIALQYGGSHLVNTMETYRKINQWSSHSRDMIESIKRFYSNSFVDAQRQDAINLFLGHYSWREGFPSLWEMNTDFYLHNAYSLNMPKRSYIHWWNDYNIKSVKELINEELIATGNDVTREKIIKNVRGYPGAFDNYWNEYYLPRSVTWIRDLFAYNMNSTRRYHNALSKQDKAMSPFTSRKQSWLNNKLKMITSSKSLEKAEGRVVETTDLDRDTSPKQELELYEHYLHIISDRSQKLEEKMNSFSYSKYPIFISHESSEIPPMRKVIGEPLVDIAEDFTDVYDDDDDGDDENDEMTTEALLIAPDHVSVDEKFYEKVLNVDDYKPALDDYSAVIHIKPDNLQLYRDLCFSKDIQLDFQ

Sequence of UniProt Q06708 (Q06708 whole entry): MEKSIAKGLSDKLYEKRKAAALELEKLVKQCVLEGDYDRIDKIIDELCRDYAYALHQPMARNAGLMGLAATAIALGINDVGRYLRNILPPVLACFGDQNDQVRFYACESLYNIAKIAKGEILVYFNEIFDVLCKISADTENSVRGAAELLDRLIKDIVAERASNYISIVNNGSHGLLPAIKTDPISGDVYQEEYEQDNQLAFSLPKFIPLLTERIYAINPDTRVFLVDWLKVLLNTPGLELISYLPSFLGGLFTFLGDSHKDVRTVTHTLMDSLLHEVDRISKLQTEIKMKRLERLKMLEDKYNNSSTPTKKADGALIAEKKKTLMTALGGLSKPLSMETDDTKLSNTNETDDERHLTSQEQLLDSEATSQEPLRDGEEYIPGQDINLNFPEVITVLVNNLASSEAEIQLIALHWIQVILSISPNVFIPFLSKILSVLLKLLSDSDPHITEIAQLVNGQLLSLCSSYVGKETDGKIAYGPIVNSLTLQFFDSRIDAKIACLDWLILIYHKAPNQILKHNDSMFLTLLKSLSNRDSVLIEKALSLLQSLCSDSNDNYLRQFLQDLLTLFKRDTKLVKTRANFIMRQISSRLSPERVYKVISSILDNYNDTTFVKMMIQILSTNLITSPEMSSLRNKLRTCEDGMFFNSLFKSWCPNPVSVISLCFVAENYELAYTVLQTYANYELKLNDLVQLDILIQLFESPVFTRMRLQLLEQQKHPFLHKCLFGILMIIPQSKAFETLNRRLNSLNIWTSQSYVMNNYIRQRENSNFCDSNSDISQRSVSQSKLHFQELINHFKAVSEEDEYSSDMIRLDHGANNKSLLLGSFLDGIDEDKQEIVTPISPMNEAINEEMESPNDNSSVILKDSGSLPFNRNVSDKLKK

For “1-phosphatidylinositol 3-phosphate 5-kinase FAB1 (Saccharomyces cerevisiae), P34756 G864E”, the “effect of a mutation on the interaction” value (vac14_yeast VAC14) was “disrupting interaction” and the “effect of a mutation on the interaction” value (fig4_yeast FIG4) was “disrupting interaction”.
